Reference: publication PMC2951910, “Signal Transduction Protein Array Analysis Links LRRK2 to Ste20 Kinases and PKC Zeta That Modulate Neuronal Plasticity” (PLoS ONE, 2010)

What was measured:
[1] = biological target: T1, GST-tagged LRRK2(G2019S) (amino acids 970-2527) (human, UniProt Q5S007 970-2527, G2019S, autophosphorylated (10 uM cold ATP, 1 h, 30 C) before the binding arrays; sites not stated); experiment: peptide or protein array; BCCP-tagged full-length human proteins held on streptavidin-coated slides; overlaid with autophosphorylated GST-LRRK2(G2019S) (970-2527) or recombinant GST with cold ATP for 1 h at 30 C; washed in buffer with 0.5% SDS; detected with an Alexa 488-conjugated anti-GST antibody; conditions: both partners purified
T1 construct: leucine-rich repeat kinase 2 (LRRK2), human, amino acids 970-2527, with the Parkinson's disease-linked mutation G2019S; In the 33P arrays the kinase was not autophosphorylated beforehand, but ATP was present during the incubation; also called recombinant LRRK2(G2019S); leucine-rich repeat kinase 2; source: bought: Invitrogen; not shown: GST, N-terminal, kept

[2] = biological target: T2, kinase-inactive GST-tagged LRRK2(D1994A) (970-2527) (human, UniProt Q5S007 970-2527, D1994A); experiment: peptide or protein array; BCCP-tagged full-length human proteins held on streptavidin-coated slides, pre-incubated with 100 uM cold ATP; overlaid with 130 nM GST-LRRK2 (G2019S or D1994A) with 10 uM ATP and [gamma-33P]ATP for 1 h at 30 C; washed in 0.5% SDS; radioactive signal on the spots read on phosphoscreens; buffer only as control; conditions: both partners purified
T2 construct: also called kinase-dead LRRK2(D1994A); source: bought: Invitrogen
T2 sequence (Q5S007 970-2527 D1994A): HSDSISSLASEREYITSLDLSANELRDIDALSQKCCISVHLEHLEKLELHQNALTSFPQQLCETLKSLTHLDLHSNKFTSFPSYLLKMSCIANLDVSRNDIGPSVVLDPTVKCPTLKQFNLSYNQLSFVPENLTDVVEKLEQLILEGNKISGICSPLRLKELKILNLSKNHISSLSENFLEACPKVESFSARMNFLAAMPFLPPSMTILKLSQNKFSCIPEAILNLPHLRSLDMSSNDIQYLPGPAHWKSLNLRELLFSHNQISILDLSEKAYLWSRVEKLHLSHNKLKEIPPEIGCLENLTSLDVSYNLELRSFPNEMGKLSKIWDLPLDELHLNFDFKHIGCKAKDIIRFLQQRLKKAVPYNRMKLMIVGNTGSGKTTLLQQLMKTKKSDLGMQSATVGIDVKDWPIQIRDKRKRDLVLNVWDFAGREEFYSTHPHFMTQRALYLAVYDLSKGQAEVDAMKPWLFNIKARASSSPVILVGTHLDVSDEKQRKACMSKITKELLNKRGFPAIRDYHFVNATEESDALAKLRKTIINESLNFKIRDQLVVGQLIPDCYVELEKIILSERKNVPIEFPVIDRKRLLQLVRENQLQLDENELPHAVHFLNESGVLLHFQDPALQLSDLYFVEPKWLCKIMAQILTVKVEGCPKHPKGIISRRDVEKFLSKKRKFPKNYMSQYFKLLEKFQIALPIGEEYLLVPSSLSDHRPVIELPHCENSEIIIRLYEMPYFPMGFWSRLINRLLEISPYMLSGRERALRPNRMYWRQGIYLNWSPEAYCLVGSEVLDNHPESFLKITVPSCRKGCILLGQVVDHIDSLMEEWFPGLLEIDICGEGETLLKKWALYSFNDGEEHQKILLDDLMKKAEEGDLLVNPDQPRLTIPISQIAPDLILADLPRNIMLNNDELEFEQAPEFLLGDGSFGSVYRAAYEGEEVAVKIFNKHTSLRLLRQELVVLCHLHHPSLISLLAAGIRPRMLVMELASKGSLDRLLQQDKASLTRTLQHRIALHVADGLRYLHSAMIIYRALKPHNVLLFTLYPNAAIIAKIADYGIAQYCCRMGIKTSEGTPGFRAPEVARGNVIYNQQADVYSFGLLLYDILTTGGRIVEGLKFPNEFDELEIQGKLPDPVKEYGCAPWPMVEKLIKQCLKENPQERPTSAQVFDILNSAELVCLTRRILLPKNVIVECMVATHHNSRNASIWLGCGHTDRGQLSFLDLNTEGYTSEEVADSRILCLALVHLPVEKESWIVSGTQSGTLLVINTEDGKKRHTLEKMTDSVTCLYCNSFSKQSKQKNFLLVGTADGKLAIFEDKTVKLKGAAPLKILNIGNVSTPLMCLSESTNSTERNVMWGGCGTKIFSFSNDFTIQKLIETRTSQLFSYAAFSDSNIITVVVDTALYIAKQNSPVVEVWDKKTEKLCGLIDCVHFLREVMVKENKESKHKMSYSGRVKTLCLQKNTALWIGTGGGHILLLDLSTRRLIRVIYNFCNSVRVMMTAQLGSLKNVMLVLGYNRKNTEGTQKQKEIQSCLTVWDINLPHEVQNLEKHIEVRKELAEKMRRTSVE

T1 sequence (Q5S007 970-2527 G2019S): as the sequence (Q5S007 970-2527 D1994A) above, with A1025D, G1050S counted along it

Binder | binding result [1] | binding result [2]
Protein kinase C, zeta (PRKCZ), arrayed (enzyme, human, UniProt Q05513 1-592, looked up, biotin on the biotin-carboxyl carrier protein tag, protein kinase C zeta (PRKCZ), human, full length, spotted on the array; Held on streptavidin-coated glass slides by the biotinylated tag; also called PKC zeta; source: bought: Sigma Panorama Human Protein Function Array - Signal Transduction; expressed in insect cells) MPSRTGPKMEGSGGRVRLKAHYGGDIFITSVDAATTFEELCEEVRDMCRLHQQHPLTLKWVDSEGDPCTVSSQMELEEAFRLARQCRDEGLIIHVFPSTPEQPGLPCPGEDKSIYRRGARRWRKLYRANGHLFQAKRFNRRAYCGQCSERIWGLARQGYRCINCKLLVHKRCHGLVPLTCRKHMDSVMPSQEPPVDDKNEDADLPSEETDGIAYISSSRKHDSIKDDSEDLKPVIDGMDGIKISQGLGLQDFDLIRVIGRGSYAKVLLVRLKKNDQIYAMKVVKKELVHDDEDIDWVQTEKHVFEQASSNPFLVGLHSCFQTTSRLFLVIEYVNGGDLMFHMQRQRKLPEEHARFYAAEICIALNFLHERGIIYRDLKLDNVLLDADGHIKLTDYGMCKEGLGPGDTTSTFCGTPNYIAPEILRGEEYGFSVDWWALGVLMFEMMAGRSPFDIITDNPDMNTEDYLFQVILEKPIRIPRFLSVKASHVLKGFLNKDPKERLGCRPQTGFSDIKSHAFFRSIDWDLLEKKQALPPFQPQITDDYGLDNFDTQFTSEPVQLTPDDEDAIKRIDQSEFEGFEYINPLLLSTEESV | binds | binds
Serine/threonine kinase 25 (STE20 homolog, yeast) (STK25), arrayed (enzyme, biotin on the biotin-carboxyl carrier protein tag, serine/threonine kinase 25 (STK25), human, full length, spotted on the array; Held on streptavidin-coated glass slides by the biotinylated tag; The array was pre-incubated with 100 uM cold ATP in the substrate arrays; source: bought: Sigma Panorama Human Protein Function Array - Signal Transduction; expressed in insect cells) not shown | binds | 
TNF receptor-associated factor 2, transcript variant 1 (TRAF2), arrayed (natural protein, human, UniProt Q12933 1-501, looked up, biotin on the biotin-carboxyl carrier protein tag, TNF receptor-associated factor 2 (TRAF2), human, full length, spotted on the array; Held on streptavidin-coated glass slides by the biotinylated tag; also called tumor necrosis factor receptor-associated factor 2; source: bought: Sigma Panorama Human Protein Function Array - Signal Transduction; expressed in insect cells) MAAASVTPPGSLELLQPGFSKTLLGTKLEAKYLCSACRNVLRRPFQAQCGHRYCSFCLASILSSGPQNCAACVHEGIYEEGISILESSSAFPDNAARREVESLPAVCPSDGCTWKGTLKEYESCHEGRCPLMLTECPACKGLVRLGEKERHLEHECPERSLSCRHCRAPCCGADVKAHHEVCPKFPLTCDGCGKKKIPREKFQDHVKTCGKCRVPCRFHAIGCLETVEGEKQQEHEVQWLREHLAMLLSSVLEAKPLLGDQSHAGSELLQRCESLEKKTATFENIVCVLNREVERVAMTAEACSRQHRLDQDKIEALSSKVQQLERSIGLKDLAMADLEQKVLEMEASTYDGVFIWKISDFARKRQEAVAGRIPAIFSPAFYTSRYGYKMCLRIYLNGDGTGRGTHLSLFFVVMKGPNDALLRWPFNQKVTLMLLDQNNREHVIDAFRPDVTSSSFQRPVNDMNIASGCPLFCPVSKMEAKNSYVRDDAIFIKAIVDLTGL | binds | 
